# Experimental data taken from patent US12594285B2, “Compositions and methods for protecting against airborne pathogens and irritants” (APPLIED BIOLOGICAL LABORATORIES, INC., priority 2016, dated 2026).
# B1: soluble ICAM-1: soluble form of intercellular adhesion molecule 1, sole antiviral agent of formulations R3 and R4 (protein, UniProt P05362 28-480, looked up)
# extracellular domain: QTSVSPSKVILPRGGSVLVTCSTSCDQPKLLGIETPLPKKELLLPGNNRKVYELSNVQEDSQPMCYSNCPDGQSTAKTFLTVYWTPERVELAPLPSWQPVGKNLTLRCQVEGGAPRANLTVVLLRGEKELKREPAVGEPAEVTTTVLVRRDHHGANFSCRTELDLRPQGLELFENTSAPYQLQTFVLPATPPQLVSPRVLEVDTQGTVVCSLDGLFPVSEAQVHLALGDQRLNPTVTYGNDSFSAKASVSVTAEDEGTQRLTCAVILGNQSQETLQTVTIYSFPAPNVILTKPEVSEGTEVTVKCEAHPRAKVTLNGVPAQPLGPRAQLLLKATPEDNGRSFSCSATLEVAGQLIHKNQTRELRVLYGPRLDERDCPGNWTWPENSQQTPMCQAWGNPLPELKCLKDGTFPLPIGESVTVTRDLEGTYLCRARSTQGEVTRKVTVNVLSPRYE
# modifications: extracellular domain
# notes: soluble form of intercellular adhesion molecule 1, sole antiviral agent of formulations R3 and R4
# B2: lactoferrin: glycoprotein of approximately 703 amino acids and approximately 80 kD in exocrine secretions (protein, UniProt P02788 20-710, looked up)
# Lactotransferrin: GRRRSVQWCAVSQPEATKCFQWQRNMRKVRGPPVSCIKRDSPIQCIQAIAENRADAVTLDGGFIYEAGLAPYKLRPVAAEVYGTERQPRTHYYAVAVVKKGGSFQLNELQGLKSCHTGLRRTAGWNVPIGTLRPFLNWTGPPEPIEAAVARFFSASCVPGADKGQFPNLCRLCAGTGENKCAFSSQEPYFSYSGAFKCLRDGAGDVAFIRESTVFEDLSDEAERDEYELLCPDNTRKPVDKFKDCHLARVPSHAVVARSVNGKEDAIWNLLRQAQEKFGKDKSPKFQLFGSPSGQKDLLFKDSAIGFSRVPPRIDSGLYLGSGYFTAIQNLRKSEEEVAARRARVVWCAVGEQELRKCNQWSGLSEGSVTCSSASTTEDCIALVLKGEADAMSLDGGYVYTAGKCGLVPVLAENYKSQQSSDPDPNCVDRPVEGYLAVAVVRRSDTSLTWNSVKGKKSCHTAVDRTAGWNIPMGLLFNQTGSCKFDEYFSQSCAPGSDPRSNLCALCIGDEQGENKCVPNSNERYYGYTGAFRCLAENAGDVAFVKDVTVLQNTDGNNNEAWAKDLKLADFALLCLDGKRKPVTEARSCHLAMAPNHAVVSRMDKVERLKQVLLHQQAKFGRNGSDCPDKFCLFQSETKNLLFNDNTECLARLHGKTTYEKYLGPQYVAGITNLKKCSTSPLLEACEFLRK
# B3: bovine lactoferrin: bovine form of the glycoprotein lactoferrin, 69% homology to human lactoferrin (protein, UniProt P24627 20-708, looked up)
# Lactotransferrin: APRKNVRWCTISQPEWFKCRRWQWRMKKLGAPSITCVRRAFALECIRAIAEKKADAVTLDGGMVFEAGRDPYKLRPVAAEIYGTKESPQTHYYAVAVVKKGSNFQLDQLQGRKSCHTGLGRSAGWIIPMGILRPYLSWTESLEPLQGAVAKFFSASCVPCIDRQAYPNLCQLCKGEGENQCACSSREPYFGYSGAFKCLQDGAGDVAFVKETTVFENLPEKADRDQYELLCLNNSRAPVDAFKECHLAQVPSHAVVARSVDGKEDLIWKLLSKAQEKFGKNKSRSFQLFGSPPGQRDLLFKDSALGFLRIPSKVDSALYLGSRYLTTLKNLRETAEEVKARYTRVVWCAVGPEEQKKCQQWSQQSGQNVTCATASTTDDCIVLVLKGEADALNLDGGYIYTAGKCGLVPVLAENRKSSKHSSLDCVLRPTEGYLAVAVVKKANEGLTWNSLKDKKSCHTAVDRTAGWNIPMGLIVNQTGSCAFDEFFSQSCAPGADPKSRLCALCAGDDQGLDKCVPNSKEKYYGYTGAFRCLAEDVGDVAFVKNDTVWENTNGESTADWAKNLNREDFRLLCLDGTRKPVTEAQSCHLAVAPNHAVVSRSDRAAHVKQVLLHQQALFGKNGKNCPDKFCLFKSETKNLLFNDNTECLAKLGGRPTYEEYLGTEYVTAIANLKKCSTSPLLEACAFLTR
# What was measured:
# [1] = test system: Human Rhinovirus A16 (clinical strain: QCHRV.16); experiment: Apical Rhinovirus replication by quantitative RT-PCR (Example 6); assay type: cell-based; details: Example 6, 24 hours pi (D1)
# [2] = test system: herpes simplex virus (topical application) and hepatitis C infection; details: before versus after contact with the virus; cited from earlier work
# [3] = in some studies; cited from earlier work
molecule,measurement,setting,value
B1,replication of HRV-A16 virus at D1,[1],inhibited replication
B2,protection against viral infection,[2],protective before contact with the virus but not after
B3,concentration required for an antimicrobial effect relative to human lactoferrin,[3],1/10
